The supplement of paper PMC9170038

Key:
MS2 coat protein [1] = assay: apparent KD of MS2 coat protein, switch ON state; designed switch direction (-1 OFF switch, 1 ON switch): -1; higher = weaker reporter binding; settings: FMN input: 0 or 200 uM; Eterna round: R93 (includes R88 designs)
Method in brief: (§1)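 For every design, apparent KD is the median of normalised binding-curve fits from its clusters. The RNA switches were transcribed on-chip from Illumina sequencing clusters and titrated with SNAP-549-labelled MS2 coat protein (twofold steps, 0.7 or 1.5 nM to 3 µM; 0.8–1.5 h to 10–20 min per step). Titrations used 100 mM Tris-HCl pH 7.5, 80 mM KCl, 4 mM MgCl2, without or with constant ligand.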

MS2 coat protein [2] = assay: apparent KD of MS2 coat protein, switch OFF state (with FMN for OFF switches, without FMN for ON switches); designed switch direction (-1 OFF switch, 1 ON switch): -1; higher = weaker reporter binding; settings: FMN input: 0 or 200 uM; Eterna round: R93 (includes R88 designs)
Method in brief: as §1

MS2 coat protein [3] = assay: apparent KD of MS2 coat protein; designed switch direction (-1 OFF switch, 1 ON switch): 1; higher = weaker reporter binding
Method in brief: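 Transcription of designed RNA switches on Illumina chips was done by stalled E. coli RNA polymerase. SNAP-549-labelled MS2 coat protein was then titrated in doubling steps from 0.7 or 1.5 nM to 3 µM, with steps of 0.8–1.5 h at the lowest and 10–20 min at the highest concentration. The per-design median over clusters of curve-fitted normalised fluorescence is reported as apparent KD.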

[4] = input ligand: microRNA oligo, concentration not stated
[5] = Eterna round: R95, input ligand: FMN 200 uM
[6] = Eterna round: R95, input ligand: microRNA oligo, concentration not stated
[7] = Eterna round: R95, input ligand: none

Sequence | apparent KD of MS2 coat protein (MS2 coat protein [1]) [nM] | apparent KD of MS2 coat protein (MS2 coat protein [2]) [nM] | other results
AGCUAGUGAGGAUAUACAAGAAUAUAAACAAAAAUGAAGGGACAUGAGGAUCACCCAUGUAGAAGGCACUAGCA [Diamond 72] | 55.2 | 221 | –
AGUCUGAGAGGAUAUACAUAGGAAAAAAAAGUAAGAUCCCUACAUGAGGAUCACCCAUGUAGAAGGCUCUGACA [Ex2 Design 142: Sub-opt 6] | 46.9 | 67.7 | –
AGGAAACAUGAGGAUCACCCAUGUUAGGAUAUGAACGAAAUAAAAUAAAAAUAAAAGUUCAGAAGGAACAAAAA [Mat - Exclusion 1 - Eli mod - D19] | 28.2 | 41.3 | –
AGCAAACAUGAGGAUCACCCAUGUGAGGAUAUGAACGAAAUAAAAUAAAAAUAAAAGUUCAGAAGGCACGAGCA [Mat - Exclusion 1 - Eli mod - D26] | 27.3 | 37.4 | –
AAAAAGUCAGGAUAUGUGAAAAAAAAAAAAAAAAAAAAAAAACAGAAGGGACAUGAGGAUCACCCAUGUAAAAA [water's exclusion 4 2nd] | 60 | 46.4 | –
GGAAAACAUGAGGAUCACCCAUGUGAGGAUAUGCAGGAUAUAGAAGGAAAAAAAAAAAGCAGAAGGUACGAAGG [salish99-ex1-17] | 22.3 | 36.3 | –
GGAAAACAUGAGGAUCACCCAUGUAAGGAUAUGCUAAGGAAGGAAAAAAACCCACCAGGCAGAAGGUACUAAAG [Janelle Amethyst 18 Mod 4 - Jieux - Exclusion 1] | 23.1 | 47.2 | –
AAAAAGGGAGGAUAUACAUGAGGAUCACCCAUGUAAAAAAACGCGGGAGGGAGGGAAGGUAGAAGGCCCAAAAA [Excls3-IV] | 20.3 | 23 | –
CUCUUGUAAGGAUAUGACUACAUAAAAAAAAAAAAAUGUAGUCAGAAGGUACAUGAGGAUCACCCAUGUACAAA [Brourd - Exclusion 4 - Sub 1] | 24.5 | 36 | –
AACAUACAUGAGGAUCACCCAUGUUAGGAUAUGCCGGGUUAGAGCCAACUAAAAAACCGUAGAAGGGACGAAAA [Bilbo Confounded 10 - Jieux - Exclusion 1] | 30.7 | 28.2 | –
AACAAACAUGAGGAUCACCCAUGUGAGGAUAUCGAAACAACAAACAACAAACAACAAACGAGAAGGCGCAACAA [e1-2] | 18.8 | 17.3 | –
GCUUGGCUAGGAUAUACAUGAGGAUCACCCAUGUGAGAGAAAAAAGUGAGAAAGAAAAGUAGAAGGAGUUGAGG [salish99-ex3-82] | 46.2 | 39.7 | –
CUCUUGUGAGGAUAUAGAAGAAAAGAAAAGAAAGAAAAGAACUAGAAGGCACAUGAGGAUCACCCAUGUAAGAA [EteRNA is fun!] | 38.7 | 67.7 | –
AAAAAGUCAGGAUAUGUCAAAGGUCACGAAAGUGACAAAGGACAGAAGGGACAUGAGGAUCACCCAUGUAGGAA [Fiskers Exclusion 4D1 65% - Late G segment 2] | 55.5 | 68.5 | –
AGGGAGUAAGGAUAUCGGAAAGGACACGAAAGUGACAAAGACGAGAAGGUACAUGAGGAUCACCCAUGUAAAAA [milkweed 24] | 32.2 | 21.6 | –
AAAAAACAUGAGGAUCACCCAUGUGAGGAUAUGAUGCGAAUAAAGAAAGAAGAAAGCAUCAGAAGGCACAUAUG [Mod of Disincluded 3 (little more stable fmn state)] | 39.5 | 234 | –
GAAAAGUCAGGAUAUGUGGAAAAAAUAAAAAAAAUAAAAACACAGAAGGGACAUGAGGAUCACCCAUGUAAAAA [Mat - Exclusion 4 - Mayanna - D140] | 68.3 | 39 | –
AAGAAGACAGGAUAUACUAAAGAAAUGAAAAGAAAGAAAGAACAUGAGGAUCACCCAUGUAGAAGGGUCAAGAA [Sewahenre Senebmiu] | 66.2 | 45.1 | –

Sequence | apparent KD of MS2 coat protein (MS2 coat protein [1]) [nM] | apparent KD of MS2 coat protein (MS2 coat protein [2]) [nM] | other results
AAAAAACAUGAGGAUCACCCAUGUGAGGAUAUGUACGAAAUAAAAUAAAAAUAAAAGUACAGAAGGCACAAAAA [Mat - Exclusion 1 - Eli mod - D4] | 40.2 | 46.6 | –
CUCAUGUUAGGAUAUUUAUGAAAUGAAGUGAAAGAAAAGAAAAAGAAGGAACAUGAGGAUCACCCAUGUUAGAA [EteRNA is fun!] | 65.2 | 35.4 | –
AUGUACCUAGGAUAUACAUGAGGAUCACCCAUGUAUUGGGAGCAAUCAAGUUAAUAUUGUAGAAGGAGGUGAAA [JR_Exc003_Sub316] | 25.7 | 67.9 | –
AACUGACAUGAGGAUCACCCAUGUCAGGAUAUGACUUCAAAAAAAAAAAAAAAUGAUGUCAGAAGGGACAUGGA [Design 64: Sub-opt MB] | 19.2 | 20.7 | –
CUCAUGUCAGGAUAUCAGUAGUAAAAAAAAAAAAUUACUACUGAGAAGGGACAUGAGGAUCACCCAUGUCCCAA [EX4 305: Super Stable 5] | 30.7 | 36.3 | –
UGUUUGUUGUGAGGAUAUACAUACACCUUACAUGAGGAUCACCCAUGUUUUAAUUUUGAUAGUUAGUAGAAGGCACAUGAUUAU [JR_SSNG2_Sub044] (Eterna round: R96, puzzle: Same State NG 2) | – | – | apparent KD of MS2 coat protein (MS2 coat protein [3]; input ligand: FMN 200 uM): 21.3 nM; apparent KD of MS2 coat protein (MS2 coat protein [3]; [4]): 28.1 nM; apparent KD of MS2 coat protein (MS2 coat protein [3]; input ligand: none): 46.5 nM
UUUAUACAUGAGGAUCACCCAUGUCAACGUAGUCGAGGAUAUGGGCAGCCGUGAGGCGUACUAGAAGGCGAAGAGG [JL-ss1-3.08 ViennaUCT mod] (puzzle: Same State 1) | – | – | apparent KD of MS2 coat protein (MS2 coat protein [3]; [5]): 49.7 nM; apparent KD of MS2 coat protein (MS2 coat protein [3]; [6]): 38.8 nM; apparent KD of MS2 coat protein (MS2 coat protein [3]; [7]): 118 nM
AAUUAAGAUUGAGGAUAUCACGUCGAUUAGACGUGAGAAGGCGAUCAUAACAUGAGGAUCACCCAUGUAUUACAUGAAUUAAUU [SSNG1/5-B2] (Eterna round: R96, puzzle: Same State NG 1) | – | – | apparent KD of MS2 coat protein (MS2 coat protein [3]; input ligand: FMN 200 uM): 31.9 nM; apparent KD of MS2 coat protein (MS2 coat protein [3]; [4]): 26.2 nM; apparent KD of MS2 coat protein (MS2 coat protein [3]; input ligand: none): 36.6 nM
AAUCGUUUGAUAGGAUAUCGCUAUACAUGAGGAUCACCCAUGUUUACCACGCUGGUUUUUCGUACUGAGAAGGAUUCUGAUGAU [JL JR sub007 mod 7] (Eterna round: R96, puzzle: Same State NG 2) | – | – | apparent KD of MS2 coat protein (MS2 coat protein [3]; input ligand: FMN 200 uM): 36.1 nM; apparent KD of MS2 coat protein (MS2 coat protein [3]; [4]): 30.4 nM; apparent KD of MS2 coat protein (MS2 coat protein [3]; input ligand: none): 42.5 nM
AGUCCAGCCUGAGCUGGACAAAAGCAUGUACAUGAGGAUCACCCAUGUCAUGUACAAGCUUUUUGCAAAUCUUAAUA [Mat - hsa-mir-208a - Mod of JL - D34] (Eterna round: R96, puzzle: Sensor for hsa-mir-208a) | – | – | apparent KD of MS2 coat protein (MS2 coat protein [3]; input ligand: FMN 200 uM): 999 nM; apparent KD of MS2 coat protein (MS2 coat protein [3]; [4]): 14.6 nM; apparent KD of MS2 coat protein (MS2 coat protein [3]; input ligand: none): 1180 nM
GUAUCUACAGGUUGCGAUGCUCGUCUGAUACAUGAGGAUCACCCAUGUUAUAGCCCUGUGCUUGCGCAGGGCUGAUU [Sensor for hsa-mir-208a ( MOD of Tearor v.2 )] (puzzle: Sensor for hsa-mir-208a) | – | – | apparent KD of MS2 coat protein (MS2 coat protein [3]; [5]): 136 nM; apparent KD of MS2 coat protein (MS2 coat protein [3]; [6]): 33.4 nM; apparent KD of MS2 coat protein (MS2 coat protein [3]; [7]): 116 nM
UCUAGACAUGAGGAUCACCCAUGUCAAUAUGACACAGGAUAUCGGUACUCAUAGAGUACGCGAGAAGGGUGACUUC [Same State 1 - Mod of Vinnie Gere v.4] (puzzle: Same State 1) | – | – | apparent KD of MS2 coat protein (MS2 coat protein [3]; [5]): 137 nM; apparent KD of MS2 coat protein (MS2 coat protein [3]; [6]): 45.5 nM; apparent KD of MS2 coat protein (MS2 coat protein [3]; [7]): 52.6 nM
GACAUUCUAUCUCAGGAUAUCAUGUCAAAGACAUGAGGAUCACCCAUGUACCAGGAAACUGGUUAUGAGAAGGGAGAUAGAAUGA [Mat - Same State 2 - Mod - D46] (puzzle: Same State 2) | – | – | apparent KD of MS2 coat protein (MS2 coat protein [3]; [5]): 103 nM; apparent KD of MS2 coat protein (MS2 coat protein [3]; [6]): 1880 nM; apparent KD of MS2 coat protein (MS2 coat protein [3]; [7]): 176 nM
AUACCGUGCCAAGGAUAUGGUGUAAACACAUGAGGAUCACCCAUGUCAGAGAGUCGAGCGACUAGCUAGAAGGUGGUAUGGGAA [Eternabot solution 9] (Eterna round: R96, puzzle: Same State NG 2) | – | – | apparent KD of MS2 coat protein (MS2 coat protein [3]; input ligand: FMN 200 uM): 112 nM; apparent KD of MS2 coat protein (MS2 coat protein [3]; [4]): 149 nM; apparent KD of MS2 coat protein (MS2 coat protein [3]; input ligand: none): 393 nM
UUAACAUGAGGAUCACCCAUGUAUGCGUUGCUUGCAUUUUGACAGGAUAUUGUUUAUCCAUAUAGCAAGAAGGGUCGUUAGUCU [JR_SSNG3_Sub010] (Eterna round: R96, puzzle: Same State NG 3) | – | – | apparent KD of MS2 coat protein (MS2 coat protein [3]; input ligand: FMN 200 uM): 80.9 nM; apparent KD of MS2 coat protein (MS2 coat protein [3]; [4]): 63.1 nM; apparent KD of MS2 coat protein (MS2 coat protein [3]; input ligand: none): 79.1 nM
AACAAUCUAUCUGAGGAUAUCAUGAAUUAAACAUGAGGAUCACCCAUGUGCAGGAAAACUGCAUAUGAGAAGGCAGAUAGAUUGA [salish99_ss2_r3_032] (puzzle: Same State 2) | – | – | apparent KD of MS2 coat protein (MS2 coat protein [3]; [5]): 40.2 nM; apparent KD of MS2 coat protein (MS2 coat protein [3]; [6]): 707 nM; apparent KD of MS2 coat protein (MS2 coat protein [3]; [7]): 58.7 nM
GGUCCCUACGCACAGGAUAUUCUUUUGGCAACAUGAGGAUCACCCAUGUGUGCCGAUCAUGGUUAGAAGAAGGGUGGUAGGGACG [Cesovexe] (puzzle: Same State 2) | – | – | apparent KD of MS2 coat protein (MS2 coat protein [3]; [5]): 12 nM; apparent KD of MS2 coat protein (MS2 coat protein [3]; [6]): 11.4 nM; apparent KD of MS2 coat protein (MS2 coat protein [3]; [7]): 16.8 nM
